Laboratory results published in the supplement of paper PMC9170038.

Test system: MS2 coat protein
Experiment: apparent KD of MS2 coat protein; designed switch direction (-1 OFF switch, 1 ON switch): -1; higher = weaker reporter binding
How it was run: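 Designed RNA switches were transcribed on Illumina chips by stalled E. coli RNA polymerase and titrated with SNAP-549-labelled MS2 coat protein from 0.7 or 1.5 nM, doubling to 3 µM. Step length ran from 0.8–1.5 h at the lowest concentration to 10–20 min at the highest. The apparent KD is the median over clusters for each design, from curve-fitted normalised cluster fluorescence.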

[1] = Eterna round: R95, input ligand: FMN 200 uM
[2] = Eterna round: R95, input ligand: microRNA oligo, concentration not stated
[3] = Eterna round: R95, input ligand: none
[4] = input ligand: microRNA oligo, concentration not stated

GCAAGAGCAGGAUAUCUAAUAUAUCACAUGAGGAUCACCCAUGUCCAGCGAAAGCUGGAGGGAGAAGGGCUCUUGC [Mat - Exclusion 5 - Eli mod - D101] (puzzle: Exclusion 5)
apparent KD of MS2 coat protein [1]: 0.0589 µM | apparent KD of MS2 coat protein [2]: 0.123 µM | apparent KD of MS2 coat protein [3]: 0.15 µM

GCAAGCUUUUUCAAUAACAACAUGAGGAUCACCCAUGUUUAAGCUAUUACUUUUGGGCUCUUUAGUGCUAGUCUUAU [JR_STOV1_Sub037] (Eterna round: R97, puzzle: Sensor, turn-off variant 1)
apparent KD of MS2 coat protein (input ligand: FMN 200 uM): 0.0191 µM | apparent KD of MS2 coat protein (input ligand: none): 0.0177 µM

GCGUGGACUGAGGAUAUCCGAACGGUGCACGGAGGAGAAGGUAGGACAUGAGGAUCACCCAUGUGAACCUAGAU [Ceinormaat] (Eterna round: R97, puzzle: Exclusion 6)
apparent KD of MS2 coat protein (input ligand: FMN 200 uM): 0.0206 µM | apparent KD of MS2 coat protein (input ligand: none): 0.0198 µM

AUAUUACAUGAGGAUCACCCAUGUGAGGAUAUGGAGCGAGACUGUCCUGUCGCGUACACCAGAAGGCGCGGGCG [1st #53] (Eterna round: R97, puzzle: Exclusion 1)
apparent KD of MS2 coat protein (input ligand: FMN 200 uM): 0.0275 µM | apparent KD of MS2 coat protein (input ligand: none): 0.031 µM

CAGUACUGAGGAUAUACAUGAGGAUCACCCAUGUCUUAAAAGUAGGAUACUACUAUUAGUAGAAGGCAGUACUG [Fiskers Ex 3 828 mod 24] (puzzle: Exclusion 3)
apparent KD of MS2 coat protein [2]: 0.0126 µM

GAUCGACAUGAGGAUCACCCAUGUCAGGAUAUCGUCACUGGAGCUUCGGCUCCAGUGACGAGAAGGGAUAUAAU [E1/16-A1] (Eterna round: R97, puzzle: Exclusion 1)
apparent KD of MS2 coat protein (input ligand: FMN 200 uM): 0.0263 µM | apparent KD of MS2 coat protein (input ligand: none): 0.0361 µM

UCUAACCAUGUAGGAUAUGCGUGGCUAAGCUAUGCAGAAGGACAUGAGGAUCACCCAUGUGCCUCCGUCUGCGUACAGUCGGCU [EXclNG1-LROPPY01] (Eterna round: R96, puzzle: Exclusion NG 1)
apparent KD of MS2 coat protein (input ligand: FMN 200 uM): 0.0155 µM | apparent KD of MS2 coat protein [4]: 0.0112 µM | apparent KD of MS2 coat protein (input ligand: none): 0.0185 µM

AAUAAUGCAGGAUAUACAUGAGGAUCACCCAUGUGAAUAAAAUAAAUAAAAUGAUAAAGUAGAAGGGCAAAUAA [JMF's solution 1] (puzzle: Exclusion 3)
apparent KD of MS2 coat protein [1]: 0.028 µM | apparent KD of MS2 coat protein [2]: 0.0288 µM | apparent KD of MS2 coat protein [3]: 0.0355 µM

GGCACACAUGAGGAUCACCCAUGUGAGGAUAUUAGGCGAUCGUCGAAAGACGAUAGCCUGAGAAGGCACAUGCC [Eli x1 4.12] (Eterna round: R97, puzzle: Exclusion 1)
apparent KD of MS2 coat protein (input ligand: FMN 200 uM): 0.0922 µM | apparent KD of MS2 coat protein (input ligand: none): 0.0198 µM

GUCGUGCGGCAGUGCUGUACGAGUACAUGAGGAUCACCCAUGUAGGAUAUGGUUCGUUUUGCGUGCUAGAAGGGCGUGCGUUUA [Excl-NG3-LRO19] (Eterna round: R96, puzzle: Exclusion NG 3)
apparent KD of MS2 coat protein (input ligand: FMN 200 uM): 0.0184 µM | apparent KD of MS2 coat protein [4]: 0.0182 µM | apparent KD of MS2 coat protein (input ligand: none): 0.0212 µM

ACAUGUCAUCGAGGAUAUUGGACACAUGAGGAUCACCCAUGUACUCGGUUGCUCUAGCAUGAGUUCGAGAAGGCGAUGUACAUU [Ex NG2 #80] (Eterna round: R96, puzzle: Exclusion NG 2)
apparent KD of MS2 coat protein (input ligand: FMN 200 uM): 0.159 µM | apparent KD of MS2 coat protein [4]: 0.229 µM | apparent KD of MS2 coat protein (input ligand: none): 0.387 µM

AGAUGGCGAGGAUAUACAUGAGGAUCACCCAUGUGAGAAGAGAAAGUGAGGAAGAAAAGUAGAAGGCGCUGUCA [Mat - Exclusion 3 - Mod of Salish D21] (puzzle: Exclusion 3)
apparent KD of MS2 coat protein [1]: 0.2 µM | apparent KD of MS2 coat protein [2]: 0.0609 µM | apparent KD of MS2 coat protein [3]: 0.057 µM

AGUAGGUCUACCUUGGUGGAUCUGCAUUUUUGCAGGUGUACAUGAGGAUCACCCAUGUCCUCAUUUGCUCGUCUUAU [JL turnoff v2 99.30] (puzzle: Sensor v3, turn-off variant 2)
apparent KD of MS2 coat protein [1]: 0.488 µM | apparent KD of MS2 coat protein [2]: 0.629 µM | apparent KD of MS2 coat protein [3]: 0.473 µM

CCGAGGUGGCGGUCCUAUGACAUGAGGAUCACCCAUGUACCUCGCCACAAGCUUUUUGCUCAUCUUAUAAUUCUCGG [Gelelebius] (puzzle: Sensor v3, turn-off variant 1)
apparent KD of MS2 coat protein [1]: 0.018 µM | apparent KD of MS2 coat protein [2]: 0.117 µM | apparent KD of MS2 coat protein [3]: 0.0161 µM

AGUAACAGAGGAUAUACUGUUUUAUGUGUUUGUUAUUUUAAACAUGAGGAUCACCCAUGUAGAAGGCUGAAUGA [JMF 99] (puzzle: Exclusion 2)
apparent KD of MS2 coat protein [2]: 0.0247 µM

ACAAGCUUUUUGCUCGUUUACAUGAGGAUCACCCAUGUGUCUUCACGCCCGGGCCCGGGCAAGCCCGGGCCCGGGCG [-47, -77, A 16%] (Eterna round: R97, puzzle: Sensor, turn-off variant 1)
apparent KD of MS2 coat protein (input ligand: FMN 200 uM): 0.0456 µM | apparent KD of MS2 coat protein (input ligand: none): 0.045 µM

CCGAUAAUGUAGGAUAUCGUAUCGGAAACGAUACGAGAAGGACAAACAUGAGGAUCACCCAUGUUCCUUAACGG [Mat - Exclusion 6 - Eli Mod - D73] (puzzle: Exclusion 6)
apparent KD of MS2 coat protein [2]: 0.015 µM

AAAGUGUAAGGAUAUCCGAAAAGCGAGCGAAAGCGAGCGAAGGAGAAGGUACAUGAGGAUCACCCAUGUAAGGG [AK-MS2ROC-r4-exclusion4-11.5] (Eterna round: R97, puzzle: Exclusion 4)
apparent KD of MS2 coat protein (input ligand: FMN 200 uM): 0.215 µM | apparent KD of MS2 coat protein (input ligand: none): 0.961 µM

AAUUUACAUGAGGAUCACCCAUGUGAGGAUAUAUGCAAAGAAGUGUUAGUAAGAAAGCAUAGAAGGCGCGUGAU [JR_Exc1_Sub041] (Eterna round: R97, puzzle: Exclusion 1)
apparent KD of MS2 coat protein (input ligand: FMN 200 uM): 0.0646 µM | apparent KD of MS2 coat protein (input ligand: none): 0.0478 µM

AAUAACUCAGUGAGGAUAUUUGCGGGUGUUUUCGCAAAGAAGGCACAUGAGGAUCACCCAUGUCAGAGGAGCUA [Eternabot (Original) Solution 24] (Eterna round: R97, puzzle: Brourd's mod of Exclusion 4)
apparent KD of MS2 coat protein (input ligand: FMN 200 uM): 0.214 µM | apparent KD of MS2 coat protein (input ligand: none): 0.12 µM

UAACCACAUGAGGAUCACCCAUGUGAGGAUAUGUCCAUAUUCGGCAAAUCGGAUAUGGACAGAAGGCACACCGG [JR_Exclusion1_Sub010] (puzzle: Exclusion 1)
apparent KD of MS2 coat protein [2]: 0.0407 µM

CUGGAGUCAGGAUAUGACGCAGUCCGCCCAAAUAGCGGAAAUCAGAAGGGACUUGAGGAUCACCCAAGUAAAAG [Qubilexe] (Eterna round: R97, puzzle: Exclusion 4)
apparent KD of MS2 coat protein (input ligand: FMN 200 uM): 0.0297 µM | apparent KD of MS2 coat protein (input ligand: none): 0.0218 µM

ACGAUGACAGAAAGAUGUCAAAAGACAUGAGGAUCACCCAUGUAGGAUAUGGCUACGAAAAGUAGUCAGAAGGACAUGUCAUCA [Omei Exc(NG) 3 Av1] (Eterna round: R96, puzzle: Exclusion NG 3)
apparent KD of MS2 coat protein (input ligand: FMN 200 uM): 0.0162 µM | apparent KD of MS2 coat protein [4]: 0.0106 µM | apparent KD of MS2 coat protein (input ligand: none): 0.0138 µM

GGUGCGUCUGUGAGGAUAUGCUGGUCCUUGGAUCAGCAGAAGGCACAUGAGGAUCACCCAUGUGGUGUCGUACC [salish99_Bmod_Ex4_028] (puzzle: Brourd's mod of Exclusion 4)
apparent KD of MS2 coat protein [2]: 0.143 µM

UUUAUAUAUGAAGGAUAUACUUAACAUGAGGAUCACCCAUGUGGUGUUGUGAGUGAGUGAGUUUAGUAGAAGGUCAAUUCUUUU [JMF's solution 91] (Eterna round: R96, puzzle: Exclusion NG 2)
apparent KD of MS2 coat protein (input ligand: FMN 200 uM): 0.731 µM | apparent KD of MS2 coat protein [4]: 0.335 µM | apparent KD of MS2 coat protein (input ligand: none): 0.362 µM

CGGCUACGAUGAGGAUAUACGCACAUGAGGAUCACCCAUGUAAAUCACGGGUAAAGAUCGUCAUCGUAGAAGGCAUAAGGGCCC [Ormale] (Eterna round: R96, puzzle: Exclusion NG 2)
apparent KD of MS2 coat protein (input ligand: FMN 200 uM): 0.033 µM | apparent KD of MS2 coat protein [4]: 0.0239 µM | apparent KD of MS2 coat protein (input ligand: none): 0.0301 µM

GGUUAAUGCAAGGAUAUGCUAUUAUUUUAUUUUGCAGAAGGUGCAACAUGAGGAUCACCCAUGUUGGAGGGUUU [JR_E6_Sub025] (puzzle: Exclusion 6)
apparent KD of MS2 coat protein [2]: 0.0186 µM

AAGAAACAUGAGGAUCACCCAUGUGAGGAUAUGAUAAAGAAAAGAAAAGAAAGAAGACUCAGAAGGCACAAAGG [salish99-ex1_r3_041] (puzzle: Exclusion 1)
apparent KD of MS2 coat protein [1]: 0.031 µM | apparent KD of MS2 coat protein [2]: 0.0267 µM | apparent KD of MS2 coat protein [3]: 0.0289 µM

UUAUUAUAUGUAGGAUAUGCAUAUUGUUGUUAUGCAGAAGGACAUGAGGAUCACCCAUGUAUAUUGUUGUUAUAUAUUAUAUAU [Title] (Eterna round: R96, puzzle: Exclusion NG 1)
apparent KD of MS2 coat protein (input ligand: FMN 200 uM): 0.0271 µM | apparent KD of MS2 coat protein [4]: 0.0186 µM | apparent KD of MS2 coat protein (input ligand: none): 0.0223 µM

GGUCUACAUGAGGAUCACCCAUGUAAGGAUAUCGUCACUGGAGCCUCGGCUCCAGUGACGAGAAGGUACGUAAU [E1/12-A2] (Eterna round: R97, puzzle: Exclusion 1)
apparent KD of MS2 coat protein (input ligand: FMN 200 uM): 0.0315 µM | apparent KD of MS2 coat protein (input ligand: none): 0.0345 µM

GAAAAGGUAGGAUAUAUGAAAAAAAAGGGUAGAAAAAAAACACAUGAGGAUCACCCAUGUAGAAGGACCAAAAG [salish99_ex2_r3_056] (puzzle: Exclusion 2)
apparent KD of MS2 coat protein [1]: 0.0372 µM | apparent KD of MS2 coat protein [2]: 0.0463 µM | apparent KD of MS2 coat protein [3]: 0.0269 µM

AUUAUAUAGAUAGGAUAUAGAAUAUUAUUUUAACAUGAGGAUCACCCAUGUAACCUUAUGUGUAGCUAGAAGGAUCAUUUAUUA [Title] (Eterna round: R96, puzzle: Exclusion NG 2)
apparent KD of MS2 coat protein [4]: 0.0695 µM

UUAACAUGCUGGUGAUCAUACAUGAGGAUCACCCAUGUAACAAGCUUUUUGUUCGUCUUAAUUUAAUUGAUUACUAG [Stov1/8-B1] (Eterna round: R97, puzzle: Sensor, turn-off variant 1)
apparent KD of MS2 coat protein (input ligand: FMN 200 uM): 0.188 µM | apparent KD of MS2 coat protein (input ligand: none): 0.247 µM

GACUCUCCCGUGAGGAUAUAUGAGGCCAUGAUUCCAUAGAAGGCACAUGAGGAUCACCCAUGUCGGGCAUAGCC [Eternabot (L2) Solution 8] (Eterna round: R97, puzzle: Brourd's mod of Exclusion 4)
apparent KD of MS2 coat protein (input ligand: FMN 200 uM): 0.0257 µM | apparent KD of MS2 coat protein (input ligand: none): 0.0413 µM

AAAUGACAUUAGGAUAUAUAACGCGGCUGCCGCAUAGAAGGGAUGACUUGAGGAUCACCCAAGUGACCCAAGGA [Arcere] (Eterna round: R97, puzzle: Exclusion 6)
apparent KD of MS2 coat protein (input ligand: FMN 200 uM): 0.0282 µM | apparent KD of MS2 coat protein (input ligand: none): 0.0308 µM
